Data taken from the nanobody polyreactivity screen of Harvey et al. (2022).

Test: yeast display, Sf9 membrane polyspecificity reagent, FACS + sequencing; frameworks hold sequencing errors
In short: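 Using colony PCR, genes from sorted yeast display clones were amplified, then sequenced on MiSeq at 2 × 250 and filtered by CDR length. The clones had been stained with 10% biotinylated, detergent-solubilized Sf9 membrane reagent for 1 hour at 4 °C and sorted by FACS into low and high (top ~1%) gates on anti-HA and streptavidin fluorescence. Polyreactivity labels come from the gate of origin.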

Sequence	polyreactivity (PSR sort gate)
QVQLVESGGGLVQAGGSLRLSCGASGFISKFYAMGWYRQAPGKERELVASISRDGSTSYADSVKGRFTMSRDNAKNSVYLQMNSLKPEDTAVYYCAAPSYRTRYYYWGQGTQVTVSS	high polyreactivity
QVQLVESGGGLVQAGGSLRLSCGASGFTFSPYAMGWYRQAPGKERELVAVISGGGSTYYADSVKGRFTISRDNAKNTVYLQMNSLKPEDTAGYYCAKRFYRSYYWGQGTQVTVSS	high polyreactivity
QVQLVESGGGLVQAGGSLRLSCGASGIIFFNNVMGWYRHAPGKERELVAAITFSGSSTYYADSVKGRFTISRDNAKNTVYLQMNSMKPEDTAVYYCAAKYYGVLYTVPGDDYWGQGTLVTVSS	low polyreactivity
QVQLVESGGGLVQAGGSLRLSCGASGNIFTRNAMGWSRQAPGKERECVAAITESGASTYYADSVKGRFTISRDNAKNTVYLQMNSLKPEDTAVYYCNARLSRWRRRPYDYWGQGTQVTVSS	high polyreactivity
QVQLVESGGGLVQAGGSLRLSCGASGRIFAYYAMGWYRQAPGKERELVADISSGGNTYYADSVKGRFTISRDNAKNTVYLQMNSLKPEDTAVYYCAADIAWYTHDHRIFDYWGQGTQVTVSS	low polyreactivity
QVQLVESGGGLVQAGGSLRLSCGASGRIFGINAMGWYRQAPGKERELVAAITKSGGTTYYADSVKGRFTISRDNAKNTVYLQMNTLKPEDTAVYYCAAKGSVVYQLRYDYWGQGTQVTVSS	high polyreactivity
QVQLVESGGGLVQAGGSLRLSCGASGRIFYYYVMGWSRQGPGKERELVAVIDWSGGSTYYADSVKGRFTISRDNAKNTVYLQMNSLKPEDTAVYYCAKVWLKFSLAYEDYVYWGQGTQVTVSS	low polyreactivity
QVQLVESGGGLVQAGGSLRLSCGASGSIFNKYAIGWYRQAPGKERELVAAISVSGTRTYYADSVKGRFTISRDNAKNTCYLQMNSLKPEDTAVYYCAATRLDSTGSMYYYWGQGTQVTVSS	high polyreactivity
QVQLVESGGGLVQAGGSLRLSCGASGSIFRLNAMGWYRQAPGKERELVARIDSSGSTNYADSVKGRFTISRDNAKNTVYLQMNSLKPEDTAVYYCAAVLVLIVGMDSWGQGTQVTVSS	low polyreactivity
QVQLVESGGGLVQAGGSLRLSCGASGSIFYGYAMGWYRQAPGKERELVASITYSGGSTYYADSVKGRFTISRDNAKNTVYLQMNSLKPEDTTVYYCAVIGYHYSAISPASQTRQGYDYWGQGTQVTVSS	low polyreactivity
QVQLVESGGGLVQAGGSLRLSCGASGSIFYQNVMGWYRQAPGKERELVAAISSSGDSTYYADSVKGRFTISRDNAKNTVYLQMNSLKPEDTAVYYCAAEPEYVSGPYDYWGQGTQVTVSS	low polyreactivity
QVQLVESGGGLVQAGGSLRLSCGAYGLTFTYNTMGWYRPAPGKERELVAAITSSGGRTYYADSVKGRFTISRDHAKNTVYFQMNSLKPEDTAVYYCAKTKYYPKRDYYWGQGTLVTVSS	high polyreactivity
QVQLVESGGGLVQAGGSLRLSCHASGYTFYVYALGWYRQPPGKERELVAAIGGGSTNYADSVKGRFTISRDNAKNTVYLQMNSLKPEDTAVYYCAARRYYKFYYWGQGTQVTVSS	high polyreactivity
QVQLVESGGGLVQAGGSLRLSCHATGFTFTIYAMGWYRQAPGKERELVATISGRAGRTYYADSVKGRFTISRDIAKNTVYLQMNSLKPEDTAVYYCNAGQWRYPGLYYYWGKGTQVTVSS	high polyreactivity
QVQLVESGGGLVQAGGSLRLSCPASGFIIRLYVMGWYRQAPGKERELVAAISSGGRTYYADSVKGRFTISRDNAKNTVYLQMNSLKPEDTAVYYCAAYVRGWGCDDFWGQGSQVTVSS	high polyreactivity
QVQLVESGGGLVQAGGSLRLSCPASGFNFPAYTMGSYRQAPGKERELVAAITSSGGNTYYADSVKGRFTISRDNAKNTVYFQMNSLKPEDTAVYYCATVSVRWPSNDHVRYDYWGQGTQVTVSS	low polyreactivity
QVQLVESGGGLVQAGGSLRLSCPASGFTFHHYVMGWYRPAPGKEMEFVASIRWRGGSTYYADSVKGRFTISRDNAKTTVYLQMNSLKPEDTAVYYSNADPYVYSSWQYGYWGQGTQVTVSS	high polyreactivity
QVQLVESGGGLVQAGGSLRLSCPASGITFKGYTMGWYRQAPGKERELVATISRGGRTYADSVKGRFTISRDNAKKTFYLQMNSLKPEDTSVYYCAADKYWAQNDYWGQGTQVTVSS	low polyreactivity
QVQLVESGGGLVQAGGSLRLSCPASGRIFYPYPKGWYRQAPGKERELVATITRTGSTYYADSVKGRFTITRDNAKNTVYVQMNSLKPEDPAVYYCAVQRSYVGPRQYNYWGQGTQVTVSS	high polyreactivity
QVQLVESGGGLVQAGGSLRLSCPASGRTFKWYAMGWYRQAPGKERELVAAISTGGRTHYADSVKGRFTISRDNSKNTVYLQMNSLKPEDTAVYYCNAADDLADPERTENHKRDYWGQGTQVTVSS	high polyreactivity
QVQLVESGGGLVQAGGSLRLSCPASGRTFNWNAMGWYRKAPGKERELVADISIRGGSTNYADSVKGRFTISRDNAKNTVYLQMNSLKPEDTAVYYCAAEYYDSGNDYWGQGTQVTVSS	low polyreactivity
QVQLVESGGGLVQAGGSLRLSCPASGRTFWWYAMGWYRQAPGKEREIVAAISQRGTSTYYADSVKGRFTISRDNAKNTVYLQMNSLNPEDTAVYYCAADRPYYPLKYDYWGQGTQVTVSS	high polyreactivity
QVQLVESGGGLVQAGGSLRLSCPASGRTIRPYAMGWYRQAPGKERELVAAITGSGTSTYYADSVKGRFTISRDNAKNTVYLQMNSLKPEDTAVYYCAVAIGYVYKTYYYWGQGTQVTVSS	high polyreactivity
QVQLVESGGGLVQAGGSLRLSCPASGSIFKYYAMGWYRQAPGKDRELVAPITDRGSSTYYADSVKGRFTISRDNAKNTVYLQMNSLKPEDTAVYYCAAVYYAFYRFGYWGQGTQVTVSS	high polyreactivity
QVQLVESGGGLVQAGGSLRLSCPASGSTFLFNAMGWYRQAPGKERELVAAIRSDGSTDYADSVKGRFTISRDNAKTTVYLQMNSLKPEDTAVYYCAAESITGYVSDFDYWGQGTQVTVSS	low polyreactivity
QVQLVESGGGLVQAGGSLRLSCPASGSTFRYYAMGWYRQAPGKERELVAAISYRGGSTKYADSVKGRFTISRDNAKNTVYLQMNSLKPEDTAVYYCNTAPWWRTSSDYEYWGQGTQVTVSS	high polyreactivity
QVQLVESGGGLVQAGGSLRLSCPASGSTFVLNAMGWYSQAPGKERELVAAITGSGSTNYADSVKGRFTISRDNAKNTVYLQMNRLKPEDTAVYYCATAAVYPIPFGYWGQGTQVTVSS	low polyreactivity
QVQLVESGGGLVQAGGSLRLSCPASGSTFYYYAMGWYRQAPGKERELVASISDDGSTNYADSVKGRFTISRDNAKNTVYLQMNSLKPEDTAVYYCAAVWWHQFGSAWYQMGYWGQGTQVTVSS	low polyreactivity
QVQLVESGGGLVQAGGSLRLSCPASGTIFYVNAMGLYRQEPGKETEFVAAITGGASTNFADSVKGRFTSSRDNAKNTVYLQMNSLKPEDTAVYYCAVDPVGHATRVWTYHYDYWGQGTQVTVSS	low polyreactivity
QVQLVESGGGLVQAGGSLRLSCPASGTTIVSNAMGWYRQAPGKERDLVAAISSSGGRTSYADSVKGRFTISRDNAKNTVSLQMNSLKPEDTAVYYCAADHPPGDTYEYWGQGTQVSVSS	low polyreactivity
